Here are results for 23 molecules from patent US20230340058A1.

For the experiment, the target named is human RXFP1, full-length (human), Q9HBX9. Put plainly: cell-based or functional assay.

Changes are numbered by the printed parent chain.

human RXFP1, full-length (human), Q9HBX9, sequence (Q9HBX9 whole entry): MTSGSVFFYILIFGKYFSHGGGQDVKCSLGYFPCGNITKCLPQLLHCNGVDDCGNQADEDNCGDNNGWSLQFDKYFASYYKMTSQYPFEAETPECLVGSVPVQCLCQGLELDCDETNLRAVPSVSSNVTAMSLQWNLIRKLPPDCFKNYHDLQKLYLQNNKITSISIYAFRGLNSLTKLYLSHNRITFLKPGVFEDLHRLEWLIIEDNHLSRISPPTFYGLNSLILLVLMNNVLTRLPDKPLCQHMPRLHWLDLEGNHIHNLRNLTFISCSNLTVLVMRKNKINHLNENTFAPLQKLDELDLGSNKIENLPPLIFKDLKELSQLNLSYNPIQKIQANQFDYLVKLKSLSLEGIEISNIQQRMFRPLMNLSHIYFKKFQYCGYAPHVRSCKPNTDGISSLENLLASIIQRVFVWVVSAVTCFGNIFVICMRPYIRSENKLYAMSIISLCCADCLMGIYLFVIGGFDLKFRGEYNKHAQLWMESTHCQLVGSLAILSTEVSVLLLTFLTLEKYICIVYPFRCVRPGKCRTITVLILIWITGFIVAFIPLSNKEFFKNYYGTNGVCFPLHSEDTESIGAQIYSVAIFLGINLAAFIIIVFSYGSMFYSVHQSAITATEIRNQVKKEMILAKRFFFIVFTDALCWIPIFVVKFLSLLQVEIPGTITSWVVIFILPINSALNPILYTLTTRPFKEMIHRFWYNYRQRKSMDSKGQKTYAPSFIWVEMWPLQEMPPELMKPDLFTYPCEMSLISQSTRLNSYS

B1: SEQ ID NO: 78 (Fc fusion)
chain: DKTHTCPPCPAPEAAGGPSVFLFPPKPKDTLMISRTPEVTCVVVDVSHEDPEVKFNWYVDGVEVHNAKTKPREEQYNSTYRVVSVLTVLHQDWLNGKEYKCKVSNKALAAPIEKTISKAKGQPREPQVYTLPPSRDELTKNQVSLTCLVKGFYPSDIAVEWESNGQPENNYKTTPPVLDSDGSFFLYSKLTVDKSRWQQGNVFSCSVLHEALHSHYTQKSLSLSPGGGSDSWQEEVIKLCGRELVRAQIAICGKSTGGGEEGGGEEGGGRQLYSALANKCCHVGCTKRSLAQFC
In the case of B1, the Potency Assay EC50 (nM), transient hRXFP1 cAMP assay worked out at 23.4 nM.

B2: Relaxin-2 (R&D Biosystems 6586-RN-025) (ligand)
chain 1: DSWMEEVIKLCGRELVRAQIAICGMSTWS
chain 2: QLYSALANKCCHVGCTKRSLARFC
Molecule B2 came in with an EC50 in nM (cAMP Response in RXFP1 Transfected HEK293 Cells) of 0.042 nM; a Potency Assay EC50 (nM), transient hRXFP1 cAMP assay of 0.1 nM; a pEC50 (cAMP Response in RXFP1 Transfected HEK293 Cells) of 10.4.

B3: SEQ ID NO: 210 (Fc fusion)
chain: DKTHTCPPCPAPEAAGGPSVFLFPPKPKDTLMISRTPEVTCVVVDVSHEDPEVKFNWYVDGVEVHNAKTKPREEQYNSTYRVVSVLTVLHQDWLNGKEYKCKVSNKALAAPIEKTISKAKGQPREPQVYTLPPSRDELTKNQVSLTCLVKGFYPSDIAVEWESNGQPENNYKTTPPVLDSDGSFFLYSKLTVDKSRWQQGNVFSCSVLHEALHSHYTQKSLSLSPGGGSDSWMEEVIKLCGRELVRAQIAICGKSTGGEGGGEEGGGEGGQLYSALANKCCHVGCTKRSLARFC
Molecule B3 registered a Potency Assay EC50 (nM), transient hRXFP1 cAMP assay of 140 nM.

B4: SEQ ID NO: 68 (Fc fusion)
chain: B3 chain with M233Q, E259G, G260E, E263G, G270R
Turning to B4, the Potency Assay EC50 (nM), transient hRXFP1 cAMP assay was determined as 3.3 nM.

B5: SEQ ID NO: 70 (Fc fusion)
chain: B1 chain with E261G, G264E, E265G, E266G, G268E
Molecule B5 registered a Potency Assay EC50 (nM), transient hRXFP1 cAMP assay of 8 nM.

B6: SEQ ID NO: 211 (Fc fusion)
chain: B3 chain with M233Q
The molecule B6 came in with a Potency Assay EC50 (nM), transient hRXFP1 cAMP assay of 101 nM.

B7: SEQ ID NO: 81 (Fc fusion)
chain: B1 chain with E261G, G264E, E265G, E266G, G268E, L272D
In the case of B7, the Potency Assay EC50 (nM), transient hRXFP1 cAMP assay was found to be 426 nM.

B8: SEQ ID NO: 80 (Fc fusion)
chain: B3 chain with M233Q, E259G, G260E, E263G, G270R, L272D
Turning to B8, the Potency Assay EC50 (nM), transient hRXFP1 cAMP assay is 162 nM.

B9: SEQ ID NO: 205 (Fc fusion)
chain: DKTHTCPPCPAPEAAGGPSVFLFPPKPKDTLMISRTPEVTCVVVDVSHEDPEVKFNWYVDGVEVHNAKTKPREEQYNSTYRVVSVLTVLHQDWLNGKEYKCKVSNKALAAPIEKTISKAKGQPREPQVYTLPPSRDELTKNQVSLTCLVKGFYPSDIAVEWESNGQPENNYKTTPPVLDSDGSFFLYSKLTVDKSRWQQGNVFSCSVLHEALHSHYTQKSLSLSPGKGGSDSWKEEVIKLCGRELVRAQIAICGKSTGGGEGGGEGGGEGGGQLYSALANKCCHVGCTKRSLARFC
With B9, the Potency Assay EC50 (nM), transient hRXFP1 cAMP assay was determined as 12.3 nM.

B10: SEQ ID NO: 207 (Fc fusion)
chain: B9 chain with K234M
B10: the Potency Assay EC50 (nM), transient hRXFP1 cAMP assay is 16 nM.

B11: SEQ ID NO: 60 (Fc fusion)
chain: B9 chain with K234Q
B11 came in with a Potency Assay EC50 (nM), transient hRXFP1 cAMP assay of 15.8 nM.

B12: SEQ ID NO: 204 (Fc fusion)
chain: DKTHTCPPCPAPEAAGGPSVFLFPPKPKDTLMISRTPEVTCVVVDVSHEDPEVKFNWYVDGVEVHNAKTKPREEQYNSTYRVVSVLTVLHQDWLNGKEYKCKVSNKALAAPIEKTISKAKGQPREPQVYTLPPSRDELTKNQVSLTCLVKGFYPSDIAVEWESNGQPENNYKTTPPVLDSDGSFFLYSKLTVDKSRWQQGNVFSCSVLHEALHSHYTQKSLSLSPGKGGSDSWKEEVIKLCGRELVRAQIAICGKSTGGGEGGGEGGGEGRQLYSALANKCCHVGCTKRSLARFC
Regarding B12, the Potency Assay EC50 (nM), transient hRXFP1 cAMP assay was found to be 2.5 nM.

B13: SEQ ID NO: 72 (Fc fusion)
chain: B12 chain with K234Q, G262E, E265G, G266E, G267E, E269G
B13: the Potency Assay EC50 (nM), transient hRXFP1 cAMP assay was found to be 5.8 nM.

B14: SEQ ID NO: 206 (Fc fusion)
chain: B12 chain with K234M
B14 gave a Potency Assay EC50 (nM), transient hRXFP1 cAMP assay of 2.9 nM.

B15: SEQ ID NO: 208 (Fc fusion)
chain: B12 chain with K234M, G260E, E261G, G264E, R271G
Turning to B15, the Potency Assay EC50 (nM), transient hRXFP1 cAMP assay turned out to be 60.3 nM.

B16: SEQ ID NO: 66 (Fc fusion)
chain: B12 chain with K234Q, R293Q
As to B16, the Potency Assay EC50 (nM), transient hRXFP1 cAMP assay amounted to 4.2 nM.

B17: SEQ ID NO: 209 (Fc fusion)
chain: B12 chain with K234Q, G260E, E261G, G264E, R271G
In turn, B17 returned a Potency Assay EC50 (nM), transient hRXFP1 cAMP assay of 62.8 nM.

B18: SEQ ID NO: 74 (Fc fusion)
chain: B12 chain with K234Q, G262E, E265G, G266E, G267E, E269G, R293Q
As for B18, the Potency Assay EC50 (nM), transient hRXFP1 cAMP assay is 10.2 nM.

B19: SEQ ID NO: 82 (Fc fusion)
chain: B12 chain with K234Q, G260E, E261G, G262E, G267E, E269G, G270S, R293Q
Molecule B19 yielded a Potency Assay EC50 (nM), transient hRXFP1 cAMP assay of 18.9 nM.

B20: SEQ ID NO: 79 (Fc fusion)
chain: B12 chain with K234Q, L273D, R293Q
As to B20, the Potency Assay EC50 (nM), transient hRXFP1 cAMP assay was 117 nM.

B21: SEQ ID NO: 57 (Fc fusion)
chain: B12 chain with K234Q
B21: the Potency Assay EC50 (nM), transient hRXFP1 cAMP assay stood at 2.5 nM.

B22: SEQ ID NO: 212 (Fc fusion)
chain: DKTHTCPPCPAPEAAGGPSVFLFPPKPKDTLMISRTPEVTCVVVDVSHEDPEVKFNWYVDGVEVHNAKTKPREEQYNSTYRVVSVLTVLHQDWLNGKEYKCKVSNKALAAPIEKTISKAKGQPREPQVYTLPPSRDELTKNQVSLTCLVKGFYPSDIAVEWESNGQPENNYKTTPPVLDSDGSFFLYSKLTVDKSRWQQGNVFSCSVLHEALHSHYTQKSLSLSPGKGGSDSWKEEVIKLCGRELVRAQIAICGKSTASDAAGANANAGARQLYSALANKCCHVGCTKRSLAQFC
As for B22, the Potency Assay EC50 (nM), transient hRXFP1 cAMP assay stood at 0.5 nM.

B23: SEQ ID NO: 213 (Fc fusion)
chain: B22 chain with Q293E
The molecule B23 came in with a Potency Assay EC50 (nM), transient hRXFP1 cAMP assay of 1.8 nM.
